Test results from US20140141454A1.

Target: human EpCAM immobilized with paraformaldehyde (on PFA-treated MCF-7 or PC-3 cells) (human) (UniProt P16422)
Experiment: liquid-phase ELISA on PC-3 cells in suspension, PFA-treated against untreated

Chain of UniProt P16422 (P16422 24-314 limits assumed): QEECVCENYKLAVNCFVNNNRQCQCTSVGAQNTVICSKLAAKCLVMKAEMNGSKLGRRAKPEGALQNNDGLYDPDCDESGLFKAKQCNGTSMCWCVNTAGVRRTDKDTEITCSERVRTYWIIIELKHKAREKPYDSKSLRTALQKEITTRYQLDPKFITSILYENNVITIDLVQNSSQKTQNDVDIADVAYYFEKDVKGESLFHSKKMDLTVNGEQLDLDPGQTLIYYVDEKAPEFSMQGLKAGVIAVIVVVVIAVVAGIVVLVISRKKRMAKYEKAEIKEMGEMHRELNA

HEA-125 anti-EpCAM monoclonal antibody
fold change of ELISA signal after 4% PFA treatment: < 1.5 fold
